One molecule from US20230212268A1 (UNM RAINFOREST INNOVATIONS, published 2023) can be followed below.

Where “and” joins values, the source holds several entries; their conditions need not be identical. Identical values can stand only once.

The term EC50 denotes the concentration at which the effect is half-maximal.

Assay [1] concerns the target recombinant BDBV glycoprotein (BDBV (Bundibugyo ebolavirus)). Briefly: maximal binding from ELISA dose-response fit. (ELISA stands for enzyme-linked immunosorbent assay.)
Assay [2] deals with T1, recombinant SUDV glycoprotein (SUDV (Sudan ebolavirus), UniProt Q7T9D9 33-650).
T1 sequence: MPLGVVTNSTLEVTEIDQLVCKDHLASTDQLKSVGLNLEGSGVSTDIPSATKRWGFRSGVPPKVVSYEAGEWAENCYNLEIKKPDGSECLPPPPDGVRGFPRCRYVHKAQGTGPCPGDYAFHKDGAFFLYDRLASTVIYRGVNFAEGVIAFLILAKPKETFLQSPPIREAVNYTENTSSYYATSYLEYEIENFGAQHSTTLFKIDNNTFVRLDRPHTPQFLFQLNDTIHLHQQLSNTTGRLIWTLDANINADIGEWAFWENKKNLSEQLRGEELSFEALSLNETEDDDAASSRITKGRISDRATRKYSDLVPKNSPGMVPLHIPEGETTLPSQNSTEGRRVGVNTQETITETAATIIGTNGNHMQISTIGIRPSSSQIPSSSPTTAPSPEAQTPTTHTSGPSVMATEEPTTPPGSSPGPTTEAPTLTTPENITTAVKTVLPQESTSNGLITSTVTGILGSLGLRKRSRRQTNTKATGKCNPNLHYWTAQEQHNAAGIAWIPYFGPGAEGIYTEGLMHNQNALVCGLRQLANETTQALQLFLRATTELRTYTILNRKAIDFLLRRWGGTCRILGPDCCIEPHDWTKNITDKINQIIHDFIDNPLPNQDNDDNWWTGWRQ
Nature of the assay: ELISA dose response, GP coated.

Assay [3] has as its target T2, recombinant EBOV glycoprotein (EBOV (Zaire ebolavirus), UniProt Q05320 33-650).
T2 sequence: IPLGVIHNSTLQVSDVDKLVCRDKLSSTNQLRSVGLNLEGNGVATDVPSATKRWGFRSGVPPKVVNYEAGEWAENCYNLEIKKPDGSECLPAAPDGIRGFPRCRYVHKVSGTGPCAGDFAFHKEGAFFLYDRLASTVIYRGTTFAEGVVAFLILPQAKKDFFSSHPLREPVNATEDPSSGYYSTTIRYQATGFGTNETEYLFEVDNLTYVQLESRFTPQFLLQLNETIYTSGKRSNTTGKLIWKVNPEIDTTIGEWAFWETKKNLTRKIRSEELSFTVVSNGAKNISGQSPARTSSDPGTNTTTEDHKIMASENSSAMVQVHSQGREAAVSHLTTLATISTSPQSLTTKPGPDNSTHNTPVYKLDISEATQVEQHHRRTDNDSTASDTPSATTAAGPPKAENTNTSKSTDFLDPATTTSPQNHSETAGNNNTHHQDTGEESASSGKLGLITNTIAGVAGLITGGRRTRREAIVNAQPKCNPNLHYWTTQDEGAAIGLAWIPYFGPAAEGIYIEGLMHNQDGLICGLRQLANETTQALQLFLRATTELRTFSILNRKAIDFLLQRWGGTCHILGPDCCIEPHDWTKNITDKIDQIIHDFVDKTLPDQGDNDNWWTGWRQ

For assay [4], the target named is T2, recombinant EBOV glycoprotein. Nature of the assay: maximal binding from ELISA dose-response fit.
Assay [5] has as its target T3, recombinant TAFV glycoprotein (TAFV (Tai Forest virus), UniProt Q66810 33-650).
T3 sequence: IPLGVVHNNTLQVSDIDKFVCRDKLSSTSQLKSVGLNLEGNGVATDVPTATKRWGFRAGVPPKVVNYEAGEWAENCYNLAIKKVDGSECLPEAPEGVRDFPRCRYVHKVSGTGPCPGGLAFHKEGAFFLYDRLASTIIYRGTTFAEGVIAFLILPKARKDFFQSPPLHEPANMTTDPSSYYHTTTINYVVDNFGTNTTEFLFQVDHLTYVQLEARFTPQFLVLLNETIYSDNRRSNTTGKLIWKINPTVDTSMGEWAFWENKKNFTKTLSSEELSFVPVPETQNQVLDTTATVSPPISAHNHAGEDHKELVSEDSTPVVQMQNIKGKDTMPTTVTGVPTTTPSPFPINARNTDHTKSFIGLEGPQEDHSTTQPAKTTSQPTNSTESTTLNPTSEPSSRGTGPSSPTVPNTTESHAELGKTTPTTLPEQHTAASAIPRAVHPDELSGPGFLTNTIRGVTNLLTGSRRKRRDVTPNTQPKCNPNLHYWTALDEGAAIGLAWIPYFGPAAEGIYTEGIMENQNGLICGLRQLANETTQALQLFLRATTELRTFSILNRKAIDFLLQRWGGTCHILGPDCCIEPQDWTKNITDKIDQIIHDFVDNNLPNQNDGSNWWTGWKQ
Briefly: maximal binding from ELISA dose-response fit.

Assay [6] has as its target T4, recombinant RESTV glycoprotein (RESTV (Reston ebolavirus), UniProt Q66799 34-651).
T4 sequence: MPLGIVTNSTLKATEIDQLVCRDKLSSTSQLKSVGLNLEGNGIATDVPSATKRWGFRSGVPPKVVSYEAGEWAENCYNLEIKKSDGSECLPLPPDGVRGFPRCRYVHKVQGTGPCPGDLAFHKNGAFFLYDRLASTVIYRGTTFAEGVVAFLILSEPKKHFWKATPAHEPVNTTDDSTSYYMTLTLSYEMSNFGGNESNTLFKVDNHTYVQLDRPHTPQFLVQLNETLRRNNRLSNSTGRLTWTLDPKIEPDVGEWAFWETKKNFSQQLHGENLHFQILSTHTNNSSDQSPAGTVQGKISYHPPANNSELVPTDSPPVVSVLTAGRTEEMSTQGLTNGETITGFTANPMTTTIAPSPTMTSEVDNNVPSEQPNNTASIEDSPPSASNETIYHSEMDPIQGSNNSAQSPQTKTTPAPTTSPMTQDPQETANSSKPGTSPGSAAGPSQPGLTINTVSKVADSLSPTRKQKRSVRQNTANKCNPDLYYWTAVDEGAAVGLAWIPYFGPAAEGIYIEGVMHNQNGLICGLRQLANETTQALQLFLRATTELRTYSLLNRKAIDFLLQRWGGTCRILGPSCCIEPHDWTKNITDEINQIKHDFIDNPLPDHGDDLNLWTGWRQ
Briefly: maximal binding from ELISA dose-response fit.

In assay [7] the target is T1, recombinant SUDV glycoprotein. Nature of the assay: maximal binding from ELISA dose-response fit.

B1: EbovGPscFv4-2 (scFv)
scFv: MAWSHPQFEKTGSGGAELVKSGASVKLSCTASGFNIKDDYMHWVKQRPEQGLEWIGWIDPENGDTEYASKFQGKATITADTSSNTAYLQLSSLTSEDTAVYYCTTYYYGSAWFAYWGQGTLVTVSAGGGGSGGGGSGGGGSGGGGSASLSVSVGETVTITCRASGNIHNYLAWYQQKQGKSPQLLVYNAKTLADGVPSRFSGSGSGTQYSLKINNLQPEDFGSYYCQHFWSTPYTFGGGTKLEIKRADAAPTVSIFPPSSEQLTSGGASVVCFLNNFTHCQELQQDECS
Regarding B1, the Bmax signal (relative absorbance units) in assay [1] worked out at 220000. Besides, the half-maximal effective concentration (EC50) was 5.3 µg/mL and < 9 µg/mL in assay [2]; 4 µg/mL in assay [3]. The Bmax signal in assay [4] was 350000 relative absorbance units; in assay [5], 280000 relative absorbance units; in assay [6], 210000 relative absorbance units; in assay [7], 280000 relative absorbance units.
